{
  "source": "paper PMC8593620",
  "test": "immunoblot of steady-state levels, CpA cells",
  "settings": "glycan lost; control: wild-type Iso1",
  "data": [
    {"protein": "RNF128 Iso1 (GRAIL): N48A (protein) parent chain: MGPPPGAGVSCRGGCGFSRLLAWCFLLALSPQAPGSRGAEAVWTAYLNVSWRVPHTGVNRTVWELSEEGVYGQDSPLEPVAGVLVPPDGPGALNACNPHTNFTVPTVWGSTVQVSWLALIQRGGGCTFADKIHLAYERGASGAVIFNFPGTRNEVIPMSHPGAVDIVAIMIGNLKGTKILQSIQRGIQVTMVIEVGKKHGPWVNHYSIFFVSVSFFIITAATVGYFIFYSARRLRNARAQSRKQRQLKADAKKAIGRLQLRTLKQGDKEIGPDGDSCAVCIELYKPNDLVRILTCNHIFHKTCVDPWLLEHRTCPMCKCDILKALGIEVDVEDGSVSLQVPVSNEISNSASSHEEDNRSETASSGYASVQGTDEPPLEEHVQSTNESLQLVNHEANSVAVDVIPHVDNPTFEEDETPNQETAVREIKS", "values": [
      {"measurement": "expression_or_secretion", "result": "decreases"}
    ]},
    {"protein": "RNF128 Iso1 (GRAIL): N59A (protein) parent chain: MGPPPGAGVSCRGGCGFSRLLAWCFLLALSPQAPGSRGAEAVWTAYLNVSWRVPHTGVNRTVWELSEEGVYGQDSPLEPVAGVLVPPDGPGALNACNPHTNFTVPTVWGSTVQVSWLALIQRGGGCTFADKIHLAYERGASGAVIFNFPGTRNEVIPMSHPGAVDIVAIMIGNLKGTKILQSIQRGIQVTMVIEVGKKHGPWVNHYSIFFVSVSFFIITAATVGYFIFYSARRLRNARAQSRKQRQLKADAKKAIGRLQLRTLKQGDKEIGPDGDSCAVCIELYKPNDLVRILTCNHIFHKTCVDPWLLEHRTCPMCKCDILKALGIEVDVEDGSVSLQVPVSNEISNSASSHEEDNRSETASSGYASVQGTDEPPLEEHVQSTNESLQLVNHEANSVAVDVIPHVDNPTFEEDETPNQETAVREIKS", "values": [
      {"measurement": "expression_or_secretion", "result": "decreases"}
    ]},
    {"protein": "RNF128 Iso1 (GRAIL): N101A (protein) parent chain: MGPPPGAGVSCRGGCGFSRLLAWCFLLALSPQAPGSRGAEAVWTAYLNVSWRVPHTGVNRTVWELSEEGVYGQDSPLEPVAGVLVPPDGPGALNACNPHTNFTVPTVWGSTVQVSWLALIQRGGGCTFADKIHLAYERGASGAVIFNFPGTRNEVIPMSHPGAVDIVAIMIGNLKGTKILQSIQRGIQVTMVIEVGKKHGPWVNHYSIFFVSVSFFIITAATVGYFIFYSARRLRNARAQSRKQRQLKADAKKAIGRLQLRTLKQGDKEIGPDGDSCAVCIELYKPNDLVRILTCNHIFHKTCVDPWLLEHRTCPMCKCDILKALGIEVDVEDGSVSLQVPVSNEISNSASSHEEDNRSETASSGYASVQGTDEPPLEEHVQSTNESLQLVNHEANSVAVDVIPHVDNPTFEEDETPNQETAVREIKS", "values": [
      {"measurement": "expression_or_secretion", "result": "decreases"}
    ]},
    {"protein": "RNF128 Iso1 (GRAIL): 3NA (protein) parent chain: MGPPPGAGVSCRGGCGFSRLLAWCFLLALSPQAPGSRGAEAVWTAYLNVSWRVPHTGVNRTVWELSEEGVYGQDSPLEPVAGVLVPPDGPGALNACNPHTNFTVPTVWGSTVQVSWLALIQRGGGCTFADKIHLAYERGASGAVIFNFPGTRNEVIPMSHPGAVDIVAIMIGNLKGTKILQSIQRGIQVTMVIEVGKKHGPWVNHYSIFFVSVSFFIITAATVGYFIFYSARRLRNARAQSRKQRQLKADAKKAIGRLQLRTLKQGDKEIGPDGDSCAVCIELYKPNDLVRILTCNHIFHKTCVDPWLLEHRTCPMCKCDILKALGIEVDVEDGSVSLQVPVSNEISNSASSHEEDNRSETASSGYASVQGTDEPPLEEHVQSTNESLQLVNHEANSVAVDVIPHVDNPTFEEDETPNQETAVREIKS", "values": [
      {"measurement": "expression_or_secretion", "result": "decreases"}
    ]}
  ]
}
